Two proteins from paper PMC10536834, “Elucidating the Role of a Calcium-Binding Loop in an x-Prolyl Aminodipeptidase from Lb. helveticus” (ACS Omega, 2023) can be followed below.

Substrate in this series: NCC(=O)N1CCC[C@H]1C(=O)Nc1ccc([N+](=O)[O-])cc1
As to the kind of experiment: purified protein. Format: biochemical, Lactobacillus helveticus. Conditions: 50 mM MES pH 6.5, 40 °C, 200 nM enzyme, 75-500 μM substrate.

Numbering of substitutions follows the chain as printed. Numbers in names are those of the source.

B1: PepX (x-prolyl aminodipeptidase) from Lactobacillus helveticus (Lactobacillus helveticus) (protein)
chain: MKYNQYAYVETDFQQQVKELIDINFLPKNYQVWDFSSLLAKLVKNAIAEAKTDAAKNAKLAEFAVSDHQTLADFLKEKPTEIGTKQFYNVALQLLGYHVHYDYDFADPTGFMQRNALPFLQDISDNQKLISAFYRLLNTRAKNGQILLDVMAGKGYFTQFWGQNKFKFFNGKSIPVFDTNKVIREVVYVETDLDTDHDGKSDLIQVTVFRPEETNKGLKVPALYTASPYFGGIIANEKRNHNVDENLSDSTEWNDPQYVHSPIVKAEKPDGSSRPATEEAVHKSSYPLNEYMLARGFASVFAGAIGTRGSDGVRITGAPEETESAAAVIEWLHGDRVAYTDRTRTVQTTADWCNGNIGMTGRSYLGTLQIAIATTGVKGLKTVVSEAAISSWYDYYREHGLVIAPEACQGEDLDLLAETCQSNLWDAGSYLKIKPEYDKMQKQLREKEDRNTGQYSDFWEARNYRHHADGIKCSWISVHGLNDWNVKPKNVYKIWQLVKKMPMKHHLFLHQGPHYNMNNLVSIDFTDLMNLWFVHELLGIENNAYNQWPTVMIQDNLQADKWHEEPDWSNDLGQEKIYYPTDEGELFQDGNGKAQKSFTDVGGIEFKKAGISESDWQYKFICGDEKWAKPSLRFETDEFTHPTTIVGRPEVKVRVSASLPKGEISVALVELGERQRLTATPKFLMHGGQELGYRFGTDTLQEFVPDKKTKAKLITKAHMNLQNFKDMKKPEAIDADKFYDLDFLLQPTYYTIPSGSKLALIIYSTDQGMTKRPLEDETYTIDLANTEIKFYEK
notes: recombinant, N-terminal six-histidine tag, pET14b, E. coli BL21(DE3)pLysS; PepX known to form dimers
As for B1, the Km was determined as 302 µM.

B2: PepX (x-prolyl aminodipeptidase) from Lactobacillus helveticus (Lactobacillus helveticus; D196A) (protein)
chain: B1 chain with D196A
notes: as for B1
For the protein B2, the Km turned out to be 315 µM.
